Patent publication US20060257938A1, “Method of screening for drugs that block ligand binding to a lipid binding protein” (priority 2005, published 2006)
Values joined by “and” are separate entries in the source; they are usually repeats but may differ in a detail not shown here. Equal values may be shown once.

B1: 36N, 72A (protein, listed as Rattus norvegicus)
chain: AFDGTWKVDRNENYEKFMEKMGINVVKRKLGAHDNNKLTITQEGNKFTVKESSNFRNIDVVFELGVDFAYSAADGTELTGTWTMEGNKLVGKFKRVDNGKELIAVREISGNELIQTYTYEGVEAKRIFKKE
modifications: PEPTIDE (1)...(131) wild-type rat intestinal fatty acid binding protein
B2: 36P, 72A (protein, listed as Rattus norvegicus)
chain: AFDGTWKVDRNENYEKFMEKMGINVVKRKLGAHDNPKLTITQEGNKFTVKESSNFRNIDVVFELGVDFAYSAADGTELTGTWTMEGNKLVGKFKRVDNGKELIAVREISGNELIQTYTYEGVEAKRIFKKE
modifications: PEPTIDE (1)...(131) wild-type rat intestinal fatty acid binding protein
B3: 36Q, 72A (protein, listed as Rattus norvegicus)
chain: AFDGTWKVDRNENYEKFMEKMGINVVKRKLGAHDNQKLTITQEGNKFTVKESSNFRNIDVVFELGVDFAYSAADGTELTGTWTMEGNKLVGKFKRVDNGKELIAVREISGNELIQTYTYEGVEAKRIFKKE
modifications: PEPTIDE (1)...(131) wild-type rat intestinal fatty acid binding protein
B4: 36R, 72A (protein, listed as Rattus norvegicus)
chain: AFDGTWKVDRNENYEKFMEKMGINVVKRKLGAHDNRKLTITQEGNKFTVKESSNFRNIDVVFELGVDFAYSAADGTELTGTWTMEGNKLVGKFKRVDNGKELIAVREISGNELIQTYTYEGVEAKRIFKKE
modifications: PEPTIDE (1)...(131) wild-type rat intestinal fatty acid binding protein
B5: 36S, 72A (protein, listed as Rattus norvegicus)
chain: AFDGTWKVDRNENYEKFMEKMGINVVKRKLGAHDNSKLTITQEGNKFTVKESSNFRNIDVVFELGVDFAYSAADGTELTGTWTMEGNKLVGKFKRVDNGKELIAVREISGNELIQTYTYEGVEAKRIFKKE
modifications: PEPTIDE (1)...(131) wild-type rat intestinal fatty acid binding protein
B6: 36Y, 72A (protein, listed as Rattus norvegicus)
chain: AFDGTWKVDRNENYEKFMEKMGINVVKRKLGAHDNYKLTITQEGNKFTVKESSNFRNIDVVFELGVDFAYSAADGTELTGTWTMEGNKLVGKFKRVDNGKELIAVREISGNELIQTYTYEGVEAKRIFKKE
modifications: PEPTIDE (1)...(131) wild-type rat intestinal fatty acid binding protein
B7: 38A2, 72A (protein, listed as Rattus norvegicus)
chain: AFDGTWKVDRNENYEKFMEKMGINVVKRKLGAHDNLKATITQEGNKFTVKESSNFRNIDVVFELGVDFAYSAADGTELTGTWTMEGNKLVGKFKRVDNGKELIAVREISGNELIQTYTYEGVEAKRIFKKE
modifications: PEPTIDE (1)...(131) wild-type rat intestinal fatty acid binding protein
B8: 38E1, 72A (protein, listed as Rattus norvegicus)
chain: AFDGTWKVDRNENYEKFMEKMGINVVKRKLGAHDNLKETITQEGNKFTVKESSNFRNIDVVFELGVDFAYSAADGTELTGTWTMEGNKLVGKFKRVDNGKELIAVREISGNELIQTYTYEGVEAKRIFKKE
modifications: PEPTIDE (1)...(131) wild-type rat intestinal fatty acid binding protein
B9: 102P, 72A (protein, listed as Rattus norvegicus)
chain: AFDGTWKVDRNENYEKFMEKMGINVVKRKLGAHDNLKLTITQEGNKFTVKESSNFRNIDVVFELGVDFAYSAADGTELTGTWTMEGNKLVGKFKRVDNGKEPIAVREISGNELIQTYTYEGVEAKRIFKKE
modifications: PEPTIDE (1)...(131) wild-type rat intestinal fatty acid binding protein
B10: 38F1, 72A (protein, listed as Rattus norvegicus)
chain: AFDGTWKVDRNENYEKFMEKMGINVVKRKLGAHDNLKFTITQEGNKFTVKESSNFRNIDVVFELGVDFAYSAADGTELTGTWTMEGNKLVGKFKRVDNGKELIAVREISGNELIQTYTYEGVEAKRIFKKE
modifications: PEPTIDE (1)...(131) wild-type rat intestinal fatty acid binding protein
B11: 38G1, 72A (protein, listed as Rattus norvegicus)
chain: AFDGTWKVDRNENYEKFMEKMGINVVKRKLGAHDNLKGTITQEGNKFTVKESSNFRNIDVVFELGVDFAYSAADGTELTGTWTMEGNKLVGKFKRVDNGKELIAVREISGNELIQTYTYEGVEAKRIFKKE
modifications: PEPTIDE (1)...(131) wild-type rat intestinal fatty acid binding protein
B12: 38H1, 72A (protein, listed as Rattus norvegicus)
chain: AFDGTWKVDRNENYEKFMEKMGINVVKRKLGAHDNLKHTITQEGNKFTVKESSNFRNIDVVFELGVDFAYSAADGTELTGTWTMEGNKLVGKFKRVDNGKELIAVREISGNELIQTYTYEGVEAKRIFKKE
modifications: PEPTIDE (1)...(131) wild-type rat intestinal fatty acid binding protein
B13: 38I3, 72A (protein, listed as Rattus norvegicus)
chain: AFDGTWKVDRNENYEKFMEKMGINVVKRKLGAHDNLKITITQEGNKFTVKESSNFRNIDVVFELGVDFAYSAADGTELTGTWTMEGNKLVGKFKRVDNGKELIAVREISGNELIQTYTYEGVEAKRIFKKE
modifications: PEPTIDE (1)...(131) wild-type rat intestinal fatty acid binding protein
B14: 38K1, 72A (protein, listed as Rattus norvegicus)
chain: AFDGTWKVDRNENYEKFMEKMGINVVKRKLGAHDNLKKTITQEGNKFTVKESSNFRNIDVVFELGVDFAYSAADGTELTGTWTMEGNKLVGKFKRVDNGKELIAVREISGNELIQTYTYEGVEAKRIFKKE
modifications: PEPTIDE (1)...(131) wild-type rat intestinal fatty acid binding protein
B15: 38N1, 72A (protein, listed as Rattus norvegicus)
chain: AFDGTWKVDRNENYEKFMEKMGINVVKRKLGAHDNLKNTITQEGNKFTVKESSNFRNIDVVFELGVDFAYSAADGTELTGTWTMEGNKLVGKFKRVDNGKELIAVREISGNELIQTYTYEGVEAKRIFKKE
modifications: PEPTIDE (1)...(131) wild-type rat intestinal fatty acid binding protein
B16: 38Q1, 72A (protein, listed as Rattus norvegicus)
chain: AFDGTWKVDRNENYEKFMEKMGINVVKRKLGAHDNLKQTITQEGNKFTVKESSNFRNIDVVFELGVDFAYSAADGTELTGTWTMEGNKLVGKFKRVDNGKELIAVREISGNELIQTYTYEGVEAKRIFKKE
modifications: PEPTIDE (1)...(131) wild-type rat intestinal fatty acid binding protein
B17: 38S1, 72A (protein, listed as Rattus norvegicus)
chain: AFDGTWKVDRNENYEKFMEKMGINVVKRKLGAHDNLKSTITQEGNKFTVKESSNFRNIDVVFELGVDFAYSAADGTELTGTWTMEGNKLVGKFKRVDNGKELIAVREISGNELIQTYTYEGVEAKRIFKKE
modifications: PEPTIDE (1)...(131) wild-type rat intestinal fatty acid binding protein

How the values were obtained:
Format in all cases: binding
Conditions in all cases: response relative to ADIFAB2
[1] = Probe fluorescence ratio response to arachidonic acid relative to ADIFAB2
Method in brief: (§1)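 Fluorescently labeled rat intestinal FABP variants were read at two emission wavelengths, near the unbound maximum (about 420 to 480 nm) and the FFA-bound maximum (about 495 to 580 nm). R = Fλ1/Fλ2 after subtracting probe-free intensity; ΔR = R+agent − R0, normalized to ADIFAB2 (rI-FABP-L72A).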

[2] = Probe fluorescence ratio response to linolenic acid relative to ADIFAB2
Method in brief: as §1

[3] = Probe fluorescence ratio response to linoleic acid relative to ADIFAB2
Method in brief: as §1

[4] = Probe fluorescence ratio response to oleic acid relative to ADIFAB2
Method in brief: as §1

[5] = Probe fluorescence ratio response to palmitic acid relative to ADIFAB2
Method in brief: as §1

Molecule	DR/DR AA ([1]; arachidonic acid)	DR/DR LNA [2]	DR/DR LA [3]	DR/DR OA [4]	DR/DR PA [5]	DR/DR AA ([1]; Arachidonic acid)
B1	0.47	0.42	0.47	0.38	0.39	
B2	0.32	0.36	−7.45	0.14	0.31	
B3	1.20 and 0.837	1.28 and 0.880	1.26 and 0.927	1.12 and 0.792	0.81 and 0.777	
B4	1.04	1.17	1.17	1.14	0.70	
B5	0.49	0.50	0.50	0.43	0.42	
B6	0.68	0.68	0.75	0.66	0.60	
B7	1.23	1.30	1.31	1.26	0.68	
B8	0.57	0.29	0.59	0.54	0.31	
B9	0.50	0.56	0.54	0.49	0.39	
B10	0.91	0.96	0.95	0.97	0.85	
B11		1.07	1.10	1.03	0.56	1.03
B12		1.19	1.25	1.16	0.74	1.24
B13		1.21	1.22	1.21	1.12	1.18
B14		0.86	0.90	0.76	0.48	0.83
B15		1.14	1.12	0.97	0.65	1.08
B16		1.87	1.90	1.75	1.30	1.87
B17		1.37	1.37	1.28	0.71	1.28
